Experimental findings from patent publication US5639616, “Isolated nucleic acid encoding a ubiquitous nuclear receptor” (Arch Development Corporation) are described below.

Data set [1] concerns the target human retinoid X receptor alpha (hRXRα) (human) (UniProt P19793).
Data set [2] deals with T1, rUR DNA-binding domain (UR-DBD) (Rattus norvegicus, UniProt Q62755 SEQ:72-168).
T1 sequence: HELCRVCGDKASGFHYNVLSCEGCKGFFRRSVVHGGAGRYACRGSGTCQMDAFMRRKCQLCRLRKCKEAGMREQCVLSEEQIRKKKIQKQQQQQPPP
The experiment in a line: EMSA; monomer binding. The following applies: tags: His tag, pET15b fusion, E. coli; label: 32P; 4-nt 5' overhangs. How it is done:
(§1) The DNA-binding ability of this domain was tested by gel-shift analyses with a set of oligonucleotides that contained AGGTCA direct repeats with 0 to 6 oligonucleotide spacing (shown above).
(§2) A segment of UR containing the DBD and a few amino acids of the hinge region (rUR amino acid residues 72 to 168) was expressed as a fusion protein using the E. coli expression vector PET15b and purified by affinity (Ni^+2/His-tag) chromatography. The DNA-binding ability of this domain was tested by gel shift analysis with a set of oligonucleotides that contained AGGTCA direct repeats with 0 to 6 oligonucleotide spacing. The UR fusion protein bound to all these direct repeats as a monomer, and optimum spacing for homodimer binding was 4 and 5 nucleotides, which is identical to a retinoic acid receptor response element (RARE). A hinge region peptide antibody super-shifted UR DBD homodimers bound to DR-4 and DR-5. Supershifting of monomer was not observed.

Data set [3] deals with T1, rUR DNA-binding domain (UR-DBD). Kind of data set: EMSA; monomer plus homodimer; homodimer best on DR-4 and DR-5, supershifted by hinge antibody. Particulars: tags: His tag, pET15b fusion, E. coli; label: 32P; 4-nt 5' overhangs. The method, then: as §1, §2
For orientation: A gel shift assay detects complexes by their altered migration in electrophoresis.

Data set [4] shares this target. The experiment in a line: EMSA; monomer plus homodimer; optimum homodimer spacing, supershifted by hinge antibody. The following applies: tags: His tag, pET15b fusion, E. coli; label: 32P; 4-nt 5' overhangs. The method, then: as §1, §2

Regarding “rat ubiquitous nuclear receptor (rUR), full-length”, in data set [1], the CAT activity of a DR-4 CAT reporter in COS-1 cells, absence of 9c-RA lay in the range of 4 to 5 fold.

B1: DR-6 (dsDNA)
DNA 1: GATCCTCAGGTCACCAAGGAGGTCAGAAGCT
DNA 2: AGCTTCTGACCTCCTTGGTGACCTGAGGATC
For B1, in data set [2], the binding result is given as “binds”.

B2: DR-4 (dsDNA)
DNA 1: GATCCTCAGGTCACAGGAGGTCAGAAGCT
DNA 2: AGCTTCTGACCTCCTGTGACCTGAGGATC
For the molecule B2, the binding result in data set [3] is reported as “binds”.

B3: DR-0 (dsDNA)
DNA 1: GATCCTCAGGTCAAGGTCAGAAGCT
DNA 2: AGCTTCTGACCTTGACCTGAGGATC
Take B3: in data set [2], the binding result is recorded as “binds”.

B4: DR-5 (dsDNA)
DNA 1: GATCCTCAGGTCACCAGGAGGTCAGAAGCT
DNA 2: AGCTTCTGACCTCCTGGTGACCTGAGGATC
Regarding B4, the binding result in data set [4] is reported as “binds”.

B5: DR-3 (dsDNA)
DNA 1: GATCCTCAGGTCAAGGAGGTCAGAAGCT
DNA 2: AGCTTCTGACCTCCTTGACCTGAGGATC
As to B5, the binding result in data set [2] is listed as “binds”.

B6: DR-1 (dsDNA)
DNA 1: GATCCTCAGGTCAGAGGTCAGAAGCT
DNA 2: AGCTTCTGACCTCTGACCTGAGGATC
For B6, the binding result in data set [2] is recorded as “binds”.

B7: DR-2 (dsDNA)
DNA 1: GATCCTCAGGTCAAGAGGTCAGAAGCT
DNA 2: AGCTTCTGACCTCTTGACCTGAGGATC
In the case of B7, the binding result in data set [2] is listed as “binds”.
